In patent publication US20220332791A1 (ALIVEGEN, published 2022):
Positions count from the first letter of the chain named. Blank lines part the entries; values can stand above or below the binder they belong to.

Key:
myostatin [1] = biological target: T1, myostatin (UniProt O14793 267-375); assay: cell-based or functional assay
T1 sequence (looked up): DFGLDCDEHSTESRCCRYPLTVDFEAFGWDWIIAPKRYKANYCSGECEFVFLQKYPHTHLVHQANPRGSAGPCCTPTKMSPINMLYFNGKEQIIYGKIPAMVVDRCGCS

activin A [2] = biological target: T2, activin A (UniProt P08476 311-426); assay: cell-based or functional assay
T2 sequence (looked up): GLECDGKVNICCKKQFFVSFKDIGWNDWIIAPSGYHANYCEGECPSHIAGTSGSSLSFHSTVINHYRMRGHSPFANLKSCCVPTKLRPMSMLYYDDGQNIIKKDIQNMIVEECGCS

activin B = biological target: T3, activin B (UniProt P09529 293-407); assay: cell-based or functional assay
T3 sequence (looked up): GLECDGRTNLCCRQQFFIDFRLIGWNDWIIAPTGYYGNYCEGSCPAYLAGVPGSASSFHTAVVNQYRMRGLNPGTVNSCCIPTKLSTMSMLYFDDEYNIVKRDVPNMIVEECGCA

BMP9 [3] = biological target: T4, BMP9 (UniProt Q9UK05 320-429); assay: cell-based or functional assay
T4 sequence (looked up): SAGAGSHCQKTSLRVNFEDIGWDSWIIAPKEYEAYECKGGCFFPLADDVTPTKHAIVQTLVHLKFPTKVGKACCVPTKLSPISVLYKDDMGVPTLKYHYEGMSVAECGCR

activin A [4] = biological target: T2, activin A; assay: cell-based or functional assay; remark: listed apart in the source
BMP9 [5] = biological target: T4, BMP9; assay: cell-based or functional assay; remark: listed apart in the source
BMP9 [6] = biological target: T4, BMP9; assay: Octet Red BLI, trap on AHC biosensors, 10 nM BMP9; legend: +++ KD < 10^-8M
Procedure: (§1) Myostatin and BMP9 binding activities of various hybrid ActRIIB ligand trap proteins were initially analyzed using Octect Red (ForteBio). Purified proteins or conditioned media were individually loaded to AHC biosensors with maximum loading. Following a baseline washing phase, the sensors were exposed to 10 nM myostatin or BMP9, respectively, for an association step followed by a dissociation step. All experiments were performed with shaking at 1,000 rpm. Binding activity was analyzed using ForteBio's software with KD being calculated using the ratio Kd/Ka.

BMP9 [7] = biological target: T4, BMP9; assay: KinExA, BMP-9-coupled Sepharose beads, trap held constant and ligand titrated
Procedure: (§2) AG-0014 and AG-0027 were analyzed by kinetic exclusion assay (KinExA) (Sapidyne Instruments, Inc.). 20-30 μg/ml of myostatin, activin A or BMP-9 was separately coupled to NHS-Activated Sepharose 4 Fast Flow beads (GE Healthcare) using experimental procedures recommended by Sapidyne Instruments. The concentration for each hybrid ActRIIB ligand trap protein was held constant as the ligand was titrated in a 2.5-fold serial dilution. Solutions were allowed to reach equilibrium by incubation at room temperature up to 24 hours and subsequently passed through a flow cell pre-packed with ligand-coated Sepharose beads on a KinExA 3000 machine (Sapidyne Instruments). The free hybrid ActRIIB ligand trap proteins captured on the beads was detected by Alexa Fluor 647-labeled goat anti-human-Fc antibody (Jackson ImmunoResearch Laboratories, Inc.). The ligand binding affinity values (KD) were calculated using the KinExA Pro software (Sapidyne Instruments).

myostatin [8] = biological target: T1, myostatin; assay: Octet Red BLI, trap on AHC biosensors, 10 nM myostatin; legend: +++ KD < 10^-8M
Procedure: as §1

activin A [9] = biological target: T2, activin A; assay: KinExA, activin A-coupled Sepharose beads, trap held constant and ligand titrated
Procedure: as §2

myostatin [10] = biological target: T1, myostatin; assay: KinExA, myostatin-coupled Sepharose beads, trap held constant and ligand titrated
Procedure: as §2

myostatin [11] = biological target: T1, myostatin; assay: cell-based or functional assay; remark: listed apart in the source
BMP9 [12] = biological target: T4, BMP9; assay: Octet Red BLI, trap on AHC biosensors, 10 nM BMP9; legend: ++ KD: 10^-6 - 10^-7M
Procedure: as §1

BMP9 [13] = biological target: T4, BMP9; assay: Octet Red BLI, trap on AHC biosensors, 10 nM BMP9; legend: + KD 10^-4 - 10^-6M
Procedure: as §1

B1: wild-type ActRIIB-ECD-Fc fusion protein (Fc fusion)
chain: ETRECIYYNANWELERTNQSGLERCEGEQDKRLHCYASWRNSSGTIELVKKGCWLDDFNCYDRQECVATEENPQVYFCCCEGNFCNERFTHLPEAGGPEVTYEPPPTAPTGGGGSESKYGPPCPPCP
notes: also called WT ActRIIB-Fc; WT; not shown: human Fc domain
Cell-Based IC50 (nM) Against Myostatin, C2C12-CAGA-luc reporter (myostatin [1]): 1.24 nM
Cell-Based IC50 (nM) Against Activin A, C2C12-CAGA-luc reporter (activin A [2]): 1.27 nM
Cell-Based IC50 (nM) Against Activin B, C2C12-CAGA-luc reporter (activin B): 1.04 nM
Cell-Based IC50 (nM) Against BMP9, C2C12-BRE-luc reporter (BMP9 [3]): 3.4 nM
IC50 (read off the curve) (activin A-induced luciferase, C2C12-CAGA-luc reporter cells) (activin A [4]): ~4 nM
IC50 (read off the curve) (BMP9-induced luciferase, C2C12-BRE-luc reporter cells) (BMP9 [5]): ~10 nM
KD (BMP9 [6]): < 10 nM
Kd (BMP9 [7]): 0.00425 nM
KD (myostatin [8]): < 10 nM
Kd (activin A [9]): 0.00138 nM
Kd (myostatin [10]): 0.00506 nM

B2: hybrid ActRIIB ligand trap protein AG-0003 (SEQ ID NO: 5) (Fc fusion, not shown: a dimerising Fc or GST)
chain: B1 chain with F58I, Q64T, E65D, A68E, T69K, E70K, E71D, N72S, Q74E
IC50 (read off the curve) (myostatin-induced luciferase, C2C12-CAGA-luc reporter cells) (myostatin [11]): ~0.4 nM
IC50 (read off the curve) (activin A-induced luciferase, C2C12-CAGA-luc reporter cells) (activin A [4]): ~10 nM
KD (myostatin [8]): < 10 nM
KD (BMP9 [12]): 100 to 1000 nM

B3: hybrid ActRIIB ligand trap protein AG-0006 (SEQ ID NO: 8) (Fc fusion)
chain: B1 chain with Q64T, E65D, A68E, T69K, E70K, E71D, N72S, Q74E
notes: not shown: human Fc domain
KD (BMP9 [13]): 1000 to 100000 nM
KD (myostatin [8]): < 10 nM

B4: hybrid ActRIIB ligand trap protein AG-0005 (SEQ ID NO: 7) (Fc fusion, not shown: a dimerising Fc or GST)
chain: B1 chain with Q64T, E65D, A68E, T69K, E70K, E71D, N72S
IC50 (read off the curve) (myostatin-induced luciferase, C2C12-CAGA-luc reporter cells) (myostatin [11]): ~1 nM
IC50 (read off the curve) (activin A-induced luciferase, C2C12-CAGA-luc reporter cells) (activin A [4]): ~10 nM
KD (BMP9 [13]): 1000 to 100000 nM
KD (myostatin [8]): < 10 nM

Now from value to binder:

KD (BMP9 [13]): 1000 to 100000 nM
KD (myostatin [8]): < 10 nM
B5: hybrid ActRIIB ligand trap protein AG-0007 (SEQ ID NO: 9) (Fc fusion)
chain: B1 chain with A68E, T69K, E70K, E71D, N72S, Q74E
notes: not shown: human Fc domain

Cell-Based IC50 (nM) Against Myostatin, C2C12-CAGA-luc reporter (myostatin [1]): 1.14 nM
Cell-Based IC50 (nM) Against Activin A, C2C12-CAGA-luc reporter (activin A [2]): 1.62 nM
Cell-Based IC50 (nM) Against Activin B, C2C12-CAGA-luc reporter (activin B): 1.3 nM
KD (myostatin [8]): < 10 nM
Kd (activin A [9]): 0.00109 nM
Kd (myostatin [10]): 0.00787 nM
B6: hybrid ActRIIB ligand trap protein AG-0027 (SEQ ID NO: 29) (Fc fusion)
chain: B1 chain with E28D, F58I, E70K
notes: also called Hybrid Trap A; Hybrid Trap; not shown: human Fc domain

Cell-Based IC50 (nM) Against Myostatin, C2C12-CAGA-luc reporter (myostatin [1]): 0.95 nM
Cell-Based IC50 (nM) Against Activin A, C2C12-CAGA-luc reporter (activin A [2]): 1.15 nM
Cell-Based IC50 (nM) Against Activin B, C2C12-CAGA-luc reporter (activin B): 2.1 nM
KD (myostatin [8]): < 10 nM
Kd (activin A [9]): 0.000357 nM
Kd (myostatin [10]): 0.00875 nM
B7: hybrid ActRIIB ligand trap protein AG-0014 (SEQ ID NO: 16) (Fc fusion)
chain: B1 chain with E26Y, E28D, Q29K, L33R
notes: also called Hybrid Trap B; not shown: human Fc domain

KD (myostatin [8]): < 10 nM
KD (BMP9 [12]): 100 to 1000 nM
B8: hybrid ActRIIB ligand trap protein AG-0008 (SEQ ID NO: 10) (Fc fusion)
chain: B1 chain with A68E, T69K, E70K, E71D, N72S
notes: not shown: human Fc domain
